Source: the supplement of paper PMC9112550, “Optimization of the antimicrobial peptide Bac7 by deep mutational scanning” (BMC Biology, 2022)

System: Escherichia coli TOP10
Experiment: shrunken log2 fold change of peptide-encoding DNA abundance (4.5 h post-induction vs induction); higher = less antimicrobial activity (less host growth inhibition)
Settings: time post-induction: 4.5 h; library: site-saturation at positions 5, 18, 19, 20
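Note: peptides expressed intracellularly from a pBAD plasmid library in pooled LB shake-flask culture, induced with 0.3% L-arabinose, DNA abundance read by NGS, three biological replicates, DESeq2 with apeglm shrinkage.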

Row | Sequence | shrunken log2 fold change
1 | RRIRKRPPRLPRPRPRPNWIPRP | -0.2
2 | RRIRPRPPRLPRPRPRPCGEPRP | -0.0188
3 | RRIRARPPRLPRPRPRPIHQPRP | -0.0255
4 | RRIRIRPPRLPRPRPRPYIEPRP | -0.266
5 | RRIRFRPPRLPRPRPRPRTPPRP | 0.534
6 | RRIRMRPPRLPRPRPRPSNFPRP | -0.192
7 | RRIRVRPPRLPRPRPRPVIIPRP | -0.182
8 | RRIRYRPPRLPRPRPRPWWEPRP | -0.0644
9 | RRIRGRPPRLPRPRPRPFWFPRP | 0.283
10 | RRIRQRPPRLPRPRPRPGQLPRP | -0.0292
11 | RRIRVRPPRLPRPRPRPFDVPRP | -0.0208
12 | RRIRYRPPRLPRPRPRPNEAPRP | -0.017
13 | RRIRSRPPRLPRPRPRPCLVPRP | -0.379
14 | RRIRARPPRLPRPRPRPLNSPRP | 0.0404
15 | RRIRTRPPRLPRPRPRPGHVPRP | -0.144
16 | RRIRQRPPRLPRPRPRPCYMPRP | -0.832
17 | RRIRYRPPRLPRPRPRPHIPPRP | -0.452
18 | RRIRTRPPRLPRPRPRPHRMPRP | -0.267
19 | RRIRFRPPRLPRPRPRPNLVPRP | -0.453
20 | RRIRHRPPRLPRPRPRPPGYPRP | 0.0632
21 | RRIRRRPPRLPRPRPRPRQPPRP | 0.997
22 | RRIRERPPRLPRPRPRPNTCPRP | -1.13
23 | RRIRGRPPRLPRPRPRPRSMPRP | 0.666
24 | RRIRLRPPRLPRPRPRPRVLPRP | -0.132
25 | RRIRKRPPRLPRPRPRPHKKPRP | -0.127

Row | Sequence | shrunken log2 fold change
26 | RRIRPRPPRLPRPRPRPPYFPRP | 0.0747
27 | RRIRWRPPRLPRPRPRPRMIPRP | 0.693
28 | RRIRLRPPRLPRPRPRPFYHPRP | -0.821
29 | RRIRIRPPRLPRPRPRPFHHPRP | 0.0886
30 | RRIRFRPPRLPRPRPRPTRCPRP | 0.299
31 | RRIRPRPPRLPRPRPRPNHQPRP | -0.251
32 | RRIRKRPPRLPRPRPRPGWAPRP | 1.04
33 | RRIRDRPPRLPRPRPRPYCNPRP | -0.137
34 | RRIRIRPPRLPRPRPRPRDLPRP | 0.067
35 | RRIRVRPPRLPRPRPRPHREPRP | -0.223
36 | RRIRIRPPRLPRPRPRPPKNPRP | -0.159
37 | RRIRKRPPRLPRPRPRPLYQPRP | -0.187
38 | RRIRYRPPRLPRPRPRPDNPPRP | -0.877
39 | RRIRKRPPRLPRPRPRPEIHPRP | 0.27
40 | RRIRARPPRLPRPRPRPKESPRP | 0.602
41 | RRIRERPPRLPRPRPRPADYPRP | -0.379
42 | RRIRHRPPRLPRPRPRPNLTPRP | -0.588
43 | RRIRARPPRLPRPRPRPSHSPRP | -0.101
44 | RRIRERPPRLPRPRPRPMIFPRP | -0.223
45 | RRIRKRPPRLPRPRPRPKWDPRP | 0.361
46 | RRIRQRPPRLPRPRPRPDYTPRP | -0.0424
47 | RRIRGRPPRLPRPRPRPYWIPRP | -0.311
48 | RRIRHRPPRLPRPRPRPITDPRP | -0.229
49 | RRIRARPPRLPRPRPRPVDEPRP | 0.33
50 | RRIRIRPPRLPRPRPRPDREPRP | 0.00825

Row | Sequence | shrunken log2 fold change
51 | RRIRDRPPRLPRPRPRPGGWPRP | 0.975
52 | RRIRLRPPRLPRPRPRPNFWPRP | 0.199
53 | RRIRMRPPRLPRPRPRPTTAPRP | 1.19
54 | RRIRHRPPRLPRPRPRPWMAPRP | -0.347
55 | RRIRNRPPRLPRPRPRPTTTPRP | 0.082
56 | RRIRERPPRLPRPRPRPMHVPRP | 0.05
57 | RRIRLRPPRLPRPRPRPWFFPRP | -0.155
58 | RRIRHRPPRLPRPRPRPWGEPRP | -0.0132
59 | RRIRHRPPRLPRPRPRPHVQPRP | -0.128
60 | RRIRDRPPRLPRPRPRPPSSPRP | -0.0759
61 | RRIRFRPPRLPRPRPRPNVQPRP | -0.237
62 | RRIRTRPPRLPRPRPRPETPPRP | 0.493
63 | RRIRERPPRLPRPRPRPRKGPRP | 0.0234
64 | RRIRHRPPRLPRPRPRPFMGPRP | -0.103
65 | RRIRDRPPRLPRPRPRPPYYPRP | -0.474
66 | RRIRWRPPRLPRPRPRPAGYPRP | 0.278
67 | RRIRDRPPRLPRPRPRPELAPRP | 1.68
68 | RRIRSRPPRLPRPRPRPHFMPRP | -0.48
69 | RRIRMRPPRLPRPRPRPMLNPRP | -0.0171
70 | RRIRMRPPRLPRPRPRPQFDPRP | -0.0694
71 | RRIRGRPPRLPRPRPRPCNIPRP | -0.284
72 | RRIRPRPPRLPRPRPRPMVRPRP | -0.0349
73 | RRIRERPPRLPRPRPRPMPKPRP | 0.153
74 | RRIRRRPPRLPRPRPRPTYIPRP | -0.12
75 | RRIRERPPRLPRPRPRPGHFPRP | 0.0631

Row | Sequence | shrunken log2 fold change
76 | RRIRARPPRLPRPRPRPWGFPRP | 0.206
77 | RRIRWRPPRLPRPRPRPLYRPRP | -0.552
78 | RRIRVRPPRLPRPRPRPSPHPRP | -0.571
79 | RRIRWRPPRLPRPRPRPHITPRP | -0.699
80 | RRIRVRPPRLPRPRPRPFRDPRP | -0.0207
81 | RRIRFRPPRLPRPRPRPNELPRP | -0.0316
82 | RRIRQRPPRLPRPRPRPFQYPRP | -0.306
83 | RRIRPRPPRLPRPRPRPRSWPRP | 0.533
84 | RRIRLRPPRLPRPRPRPGMWPRP | 0.164
85 | RRIRMRPPRLPRPRPRPVPDPRP | 0.239
86 | RRIRCRPPRLPRPRPRPTWQPRP | 0.288
87 | RRIRARPPRLPRPRPRPANWPRP | 0.215
88 | RRIRGRPPRLPRPRPRPLPVPRP | 0.572
89 | RRIRQRPPRLPRPRPRPYAKPRP | -0.122
90 | RRIRERPPRLPRPRPRPTLAPRP | 0.269
91 | RRIRWRPPRLPRPRPRPPESPRP | 0.225
92 | RRIRCRPPRLPRPRPRPTYTPRP | -0.793
93 | RRIRYRPPRLPRPRPRPAQIPRP | -0.347
94 | RRIRVRPPRLPRPRPRPLSQPRP | -0.032
95 | RRIRVRPPRLPRPRPRPENCPRP | -0.0723
96 | RRIRPRPPRLPRPRPRPQLFPRP | 0.0893
97 | RRIRGRPPRLPRPRPRPGNQPRP | -0.0828
98 | RRIRDRPPRLPRPRPRPEMFPRP | -0.0156
99 | RRIRVRPPRLPRPRPRPFRIPRP | -0.26
100 | RRIRARPPRLPRPRPRPKACPRP | 0.19

Row | Sequence | shrunken log2 fold change
101 | RRIRSRPPRLPRPRPRPVVRPRP | 0.367
102 | RRIRERPPRLPRPRPRPYRNPRP | -0.166
103 | RRIRIRPPRLPRPRPRPHVYPRP | -0.112
104 | RRIRNRPPRLPRPRPRPCDEPRP | -0.035
105 | RRIRERPPRLPRPRPRPYYQPRP | 0.0241
106 | RRIRIRPPRLPRPRPRPFARPRP | -0.0891
107 | RRIRMRPPRLPRPRPRPTIRPRP | 0.0273
108 | RRIRYRPPRLPRPRPRPHMGPRP | 3.73
109 | RRIRNRPPRLPRPRPRPPVAPRP | 0.239
110 | RRIRLRPPRLPRPRPRPDFRPRP | 0.0254
111 | RRIRRRPPRLPRPRPRPCAAPRP | 0.743
112 | RRIRARPPRLPRPRPRPAVQPRP | -0.0122
113 | RRIRQRPPRLPRPRPRPRFQPRP | 0.202
114 | RRIRMRPPRLPRPRPRPVPCPRP | 0.291
115 | RRIRSRPPRLPRPRPRPHRFPRP | -0.301
116 | RRIRVRPPRLPRPRPRPRHWPRP | 0.293
117 | RRIRARPPRLPRPRPRPNAEPRP | 0.679
118 | RRIRKRPPRLPRPRPRPDPAPRP | 0.688
119 | RRIRVRPPRLPRPRPRPYFAPRP | -0.246
120 | RRIRDRPPRLPRPRPRPEYAPRP | 0.815
121 | RRIRGRPPRLPRPRPRPFMKPRP | -0.248
122 | RRIRWRPPRLPRPRPRPVRWPRP | 0.874
123 | RRIRNRPPRLPRPRPRPFCKPRP | -0.835
124 | RRIRRRPPRLPRPRPRPCQYPRP | -0.137
125 | RRIRYRPPRLPRPRPRPHMNPRP | -1.2
